Laboratory results taken from patent publication US5858646.

Target: uncleaved ~95 kD pol gene product of recombinant AcNPV-HIVYKpol (HIV-1 pol polypeptide lacking the first 91 amino acids at the NH2-terminus of the HIV-pol protease) (HIV-1)
Assay: ELISA on plates coated with pol, no primary antibody, read at 450 nm

goat anti-human Ig linked to horse radish peroxidase (Tago Diagnostics, cat 2393) (tool reagent)
OD: < 0.1 OD
